This is an account of results in PMC12592377.

The experiment concerns the target HIV-1 capsid (CA) protein (HIV-1). Description: cryo-EM structure; cryo-ET of cryo-FIB lamellae with template matching and subtomogram averaging (C6 symmetry kept) of CA hexamers in capsid lattices of isolated VLP cores incubated with permeabilized CEM cells, EGS-fixed; cores outside the nucleus (approaching and docking), traversing the NPC and imported.

Usually stoichiometry N stands for the number of molecules, sites or subunits per partner or assembly. The substance “HIV-1 capsid (CA) protein (natural protein)” gave a stoichiometry N of 6.
